Experimental data reported in article PMC7748022.
Numbering of substitutions follows the chain as printed.

Tests used:
[1] = biological target: T1, GST-PIF4 (UniProt Q8W2F3 1-430); test: EMSA
T1 sequence: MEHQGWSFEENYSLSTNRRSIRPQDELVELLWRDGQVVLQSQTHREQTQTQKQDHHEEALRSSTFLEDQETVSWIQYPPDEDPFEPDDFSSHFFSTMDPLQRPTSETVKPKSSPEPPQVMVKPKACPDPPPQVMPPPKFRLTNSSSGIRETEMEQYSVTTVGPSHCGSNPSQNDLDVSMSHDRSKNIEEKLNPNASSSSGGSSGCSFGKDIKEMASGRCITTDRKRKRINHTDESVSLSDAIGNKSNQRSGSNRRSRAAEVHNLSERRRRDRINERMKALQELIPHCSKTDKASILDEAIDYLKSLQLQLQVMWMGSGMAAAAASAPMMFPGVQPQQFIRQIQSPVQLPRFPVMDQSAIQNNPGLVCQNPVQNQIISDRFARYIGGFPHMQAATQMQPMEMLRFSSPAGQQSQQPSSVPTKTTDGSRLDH

[2] = biological target: T1, GST-PIF4; test: competition

B1: PIF4 promoter probe (G-box) (dsDNA)
DNA 1: ATTCCAACACAATGTCCCAGAACTTGCCACGTGTCGTTCATTTCAAAAGATTGCAGTACT
DNA 2: AGTACTGCAATCTTTTGAAATGAACGACACGTGGCAAGTTCTGGGACATTGTGTTGGAAT
[1]
  binding result: binds

B2: PIF4-MU probe (CACGTG to AACGTG) (dsDNA)
DNA 1: B1 DNA 1 with C28A
DNA 2: B1 DNA 2 with G33T
[2]
  binding result: no binding
